Reference: article PMC8032705, “Identification and characterization of piperine synthase from black pepper, Piper nigrum L” (Communications Biology, 2021)

B1: piperine synthase (PipBAHD2) (Piper nigrum) (protein)
chain: MAPSSQLEFNVVRKQPELLPPAEPTPFEWKELSDIDDQDGLRLHISGFFIYPPSTMSNVGRDNVARDIRLGLSKAMVFYYPLAGRIREGPNRKLSVECTGEGIMYCEADADVRLEQFGDIGALSMPFPFMDKVMFETVDDGILGTPLMYFQSTRFICGGIVIAGCYNHAIADGLGFYMFMAAAAQLARGAASPTPLPVWQRERLLSRVPPRVTFIHHEYIHDTPKTETANPLDNEPWPLHSIFFTRVDVAALRAQLPGHLRKSATSFEIISACLWRCRTAALRFAPDELSRLIIAVNARTKFGPPLPQGYYGNSIMLPMVVSEAGKLVLSGLGYAVELVIEAKGKVTEEYVKSVADYLVLNGRPHYVVTNTYLVSDLRQLVEMSKFDWGWGKPAYVGPADVGENAISFLATLKNGEEEGVVVPIRLPESAVGRFKSEVSKMVSFGCLEDVKPNRDGYLSRM
notes: full-length cDNA from immature fruits, N-terminal His10 tag (pET-16b), E. coli LEMO21, IMAC
B2: piperamide synthase (PipBAHD1) (Piper nigrum) (protein)
chain: MASSQLEFNVERKQPELLGPAEPTPYELKELSDIDDQDGVRLFLTAIFIYPPPTKTSMPTRKTDPASDIRRGLSKAMVYYYPFAGRIREGPNRKLSVDCTGEGIVFCEADADIRLDGLGDVEVLRPPYPFIDKMTLGEGSAILGAPLVYVQVTRFACGGFIITGRFNHVMADAPGFTMFMKAAADLARGATVPMPLPVWERERYRSRVPPRVTFAHHEYMHVDDPPPRPTSEPWSLHSAFFTKADVATLRAQLPADLRKAATSFDIITACMWRCRVSALQYGPDEVVRLIVAVNSRTKFDPPLTGYYGNGLMLPAAVTEAGKLVGSDLGYAVELVREAKGKVTEEYVRSAADFLVLNGRVHFVVSNTFLVSDLRRLIDLANMDWGWGKAVSGGPVDVGENVISFLATSKNSAGEEGAVVPFCLPDSALGRFTSEVKKLVCFRPLENAAASNPDHGYMSRM
notes: as for B1

Columns and labels:
Format in all cases: biochemical, Piper nigrum
[1] = substrate: C1CCNCC1; assay: HPLC-UV/Vis and LC-MS of piperine (plus isomers) formation; conditions: co-substrate piperoyl-CoA, pH 8.0, 30 mM Tris/HCl, 1 mM DTT
From the text: (§1) HPLC-UV/Vis and LC-MS of piperine (plus isomers) formation on piperine synthase (PipBAHD2)

[2] = substrate: CC(C)(COP(=O)(O)OP(=O)(O)OC[C@H]1O[C@@H](n2cnc3c(N)ncnc32)[C@H](O)[C@@H]1OP(=O)(O)O)[C@@H](O)C(=O)NCCC(=O)NCCSC(=O)/C=C/C=C/c1ccc2c(c1)OCO2; assay: as above; conditions: co-substrate piperidine, pH 8.0, 30 mM Tris/HCl, 1 mM DTT
From the text: as §1

[3] = substrate: C1CCNCC1; assay: HPLC-UV/Vis and LC-MS of piperine isomer formation; conditions: co-substrate piperoyl-CoA, pH 8.0, 30 mM Tris/HCl, 1 mM DTT
From the text: (§2) HPLC-UV/Vis and LC-MS of piperine isomer formation on piperamide synthase (PipBAHD1)

[4] = substrate: CC(C)(COP(=O)(O)OP(=O)(O)OC[C@H]1O[C@@H](n2cnc3c(N)ncnc32)[C@H](O)[C@@H]1OP(=O)(O)O)[C@@H](O)C(=O)NCCC(=O)NCCSC(=O)/C=C/C=C/c1ccc2c(c1)OCO2; assay: HPLC-UV/Vis and LC-MS of piperine isomer formation; conditions: co-substrate piperidine, pH 8.0, 30 mM Tris/HCl, 1 mM DTT
From the text: as §2

| Protein | Km [1] [mM] | Km [2] [mM] | kcat [2] [s⁻¹] | kcat/Km [2] [M⁻¹ s⁻¹] | Km [3] [mM] | kcat [3] [s⁻¹] | kcat/Km [3] [M⁻¹ s⁻¹] | Km [4] [mM] | kcat [4] [s⁻¹] | kcat/Km [4] [M⁻¹ s⁻¹] |
| --- | --- | --- | --- | --- | --- | --- | --- | --- | --- | --- |
| B1 | 7.6 ± 0.5 | 0.342 ± 0.060 | 1.01 ± 0.12 | 2950 | – | – | – | – | – | – |
| B2 | – | – | – | – | 8.69 ± 3.6 | 0.27 ± 0.02 | 31.1 | 0.196 ± 0.009 | 0.35 ± 0.01 | 1790 |
